Experimental data reported in patent publication US20030143669.

What was measured:
[1] = test system: CHO-expressed epitope-tagged, soluble human phosphodiester α-GlcNAcase
[2] = test system: Insect-expressed epitope-tagged human phosphodiester α-GlcNAcase lacking the pro-sequence

For Furin, the “UCE activity, % increase relative to the minus Furin samples” value [1] was “up to 130% increase in activity”, the “Western blot of cleavage (pro-UCE to mature UCE)” value [1] was “the CHO-derived UCE is sensitive to furin cleavage as shown by the progressive conversion of the pro-UCE to the mature form” and the “Western blot of cleavage; UCE activity” value [2] was “the insect-derived UCE is not cleaved by furin as shown by the single UCE form”.
